Measured values reported in publication PMC3977576 (Biochemistry, 2014).

Biological target: the molecule itself
Experiment: SEC-MALS

B1: IKK2EE(11–669) (domain or fragment)
chain: TCGAWEMKERLGTGGFGNVIRWHNQETGEQIAIKQCRQELSPRNRERWCLEIQIMRRLTHPNVVAARDVPEGMQNLAPNDLPLLAMEYCQGGDLRKYLNQFENCCGLREGAILTLLSDIASALRYLHENRIIHRDLKPENIVLQQGEQRLIHKIIDLGYAKELDQGELCTEFVGTLQYLAPELLEQQKYTVTVDYWSFGTLAFECITGFRPFLPNWQPVQWHSKVRQKSEVDIVVSEDLNGTVKFSSSLPYPNNLNSVLAERLEKWLQLMLMWHPRQRGTDPTYGPNGCFKALDDILNLKLVHILNMVTGTIHTYPVTEDESLQSLKARIQQDTGIPEEDQELLQEAGLALIPDKPATQCISDGKLNEGHTLDMDLVFLFDNSKITYETQISPRPQPESVSCILQEPKRNLAFFQLRKVWGQVWHSIQTLKEDCNRLQQGQRAAMMNLLRNNSCLSKMKNSMASMSQQLKAKLDFFKTSIQIDLEKYSEQTEFGITSDKLLLAWREMEQAVELCGRENEVKLLVERMMALQTDIVDLQRSPMGRKQGGTLDDLEEQARELYRRLREKPRDQRTEGDSQEMVRLLLQAIQSFEKKVRVIYTQLSKTVVCKQKALELLPKVEEVVSLMNEDEKTVVRLQEKRQKELWNLLKIACSKVRGPV
- stoichiometry N: 2
